# Measured values as given in patent US10538802B2, “Polypeptide substrate for the detection of von Williebrand factor cleaving protease ADAMTS13” (IMMUCOR GTI DIAGNOSTICS, INC., priority 2011, dated 2020).
# Target: T1, ADAMTS13 (Homo sapiens, UniProt Q76LX8)
# T1 construct: tissue Gen-Probe GTI Diagnostics (ATS-13 kit calibrators, controls and proficiency samples); George King Biomedical Inc. (FACT, A-FACT, B-FACT plasmas) ATS-13; host or cells: plasma
# T1 sequence (Q76LX8 75-1427): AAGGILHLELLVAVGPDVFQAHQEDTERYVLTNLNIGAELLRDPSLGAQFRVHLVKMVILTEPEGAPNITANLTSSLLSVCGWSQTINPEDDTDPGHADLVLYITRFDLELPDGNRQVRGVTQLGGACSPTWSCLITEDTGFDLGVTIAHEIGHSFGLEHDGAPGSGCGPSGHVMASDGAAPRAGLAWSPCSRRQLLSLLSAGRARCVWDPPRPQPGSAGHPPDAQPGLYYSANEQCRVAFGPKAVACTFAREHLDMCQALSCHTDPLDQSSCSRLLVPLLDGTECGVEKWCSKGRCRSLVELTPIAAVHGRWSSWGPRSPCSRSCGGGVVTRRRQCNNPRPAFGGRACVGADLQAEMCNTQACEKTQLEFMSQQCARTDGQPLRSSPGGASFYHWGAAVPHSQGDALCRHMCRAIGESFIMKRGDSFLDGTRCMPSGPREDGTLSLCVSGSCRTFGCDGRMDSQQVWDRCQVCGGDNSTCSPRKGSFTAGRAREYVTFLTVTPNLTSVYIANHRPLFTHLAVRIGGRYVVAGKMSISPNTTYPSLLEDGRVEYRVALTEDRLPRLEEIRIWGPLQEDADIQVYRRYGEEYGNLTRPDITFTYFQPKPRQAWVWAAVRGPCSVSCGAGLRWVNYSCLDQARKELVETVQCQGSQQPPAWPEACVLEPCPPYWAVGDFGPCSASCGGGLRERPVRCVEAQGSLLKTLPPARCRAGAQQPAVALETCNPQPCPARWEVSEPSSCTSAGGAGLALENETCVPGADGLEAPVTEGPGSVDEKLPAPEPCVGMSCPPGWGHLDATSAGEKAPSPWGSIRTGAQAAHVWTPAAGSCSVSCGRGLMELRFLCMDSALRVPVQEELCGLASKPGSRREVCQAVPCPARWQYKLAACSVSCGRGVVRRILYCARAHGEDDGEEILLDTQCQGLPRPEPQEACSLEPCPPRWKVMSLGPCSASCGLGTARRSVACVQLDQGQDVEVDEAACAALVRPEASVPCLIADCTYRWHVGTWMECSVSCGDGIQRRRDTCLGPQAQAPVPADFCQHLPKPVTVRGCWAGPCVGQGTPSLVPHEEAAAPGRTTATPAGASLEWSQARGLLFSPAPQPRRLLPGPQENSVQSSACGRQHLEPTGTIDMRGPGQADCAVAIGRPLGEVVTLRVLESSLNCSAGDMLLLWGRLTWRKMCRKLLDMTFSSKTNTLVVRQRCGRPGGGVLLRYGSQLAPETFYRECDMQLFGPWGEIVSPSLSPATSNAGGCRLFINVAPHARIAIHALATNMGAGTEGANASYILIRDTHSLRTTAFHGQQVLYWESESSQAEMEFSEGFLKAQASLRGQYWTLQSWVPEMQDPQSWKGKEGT
# Experiment: ADAMTS13 activity assay with fluorogenic (FRET) polypeptide substrate and diluted plasma samples
# Assay type: biochemical
# Procedure: The procedure in this example was performed substantially as described in Kokame, K., Y. Nobe, Y. Kokubo, A. Okayama, and T. Miyata. 2005. FRETS-VWF73, a first fluorogenic substrate for ADAMTS13 assay. Br. J. Haematol. 129:93-100, but using SEQ ID NO: 1 in place of the 73 amino acid substrate described therein. The FRETS-VWF73 substrate solution was dissolved in 25% dimethyl sulphoxide/water to prepare the 100 microM stock solution. The GTI FRET4 SEQ ID NO: 1 was dissolved in 100% DMSO. Both substrates were diluted to equal concentrations using ATS-13 substrate buffer (Gen-Probe GT1 Diagnostics, Inc., U.S.A., Cat#ATS-13).
# Plasma samples were diluted according to the ATS-13 Direction Insert using ATS-13 specimen diluent (Gen-Probe GTI Diagnostics, Inc., U.S.A., Cat# ATS-13). The diluted plasma samples were mixed with the diluted substrate and the fluorescence was read at 0, 5, 10, 15, 20, 30, 45 minutes using a Biotek FLX800 at the appropriate excitation and emission wavelengths for each substrate.
# The fluorophore-quencher pair in the SEQ ID NO: 1 polypeptide substrate is FAM-5/TQ 2^Tm (Ex 485±20; Em 528±20; AAT Bioquest, Inc. Sunnyvale, Calif. U.S.A.). The fluorophore and quencher pair of FRETS-VWF73 (Nma/Dnp) described in Kokame has been substituted with FAM-5 and TQ_2 respectively in GTI_FRET4 SEQ ID NO: 1. Furthermore, in the SEQ ID NO: 1 polypeptide the position of the fluorophore (FAM-5) and quencher (TQ_2) has been swapped relative to the position of the fluorophore and quencher of the FRETS-VWF73 construct. Therefore, for GTI_FRET4 SEQ ID NO: 1, attachment of the fluorophore (FAM-5) occurs by substituting asparagine with cystine at position 15. The quencher (TQ_2) was attached by substituting glutamine with lysine at position 4 (FIG. 2 and Table 4).
# For this experiment, substrate concentration and fluorescence reader settings determined on the previous experiment are used. The specimens tested (listed in Table 3), include a panel of proficiency samples prepared for use with ATS-13 (Gen-Probe GTI Diagnostics, Inc., U.S.A., Cat# ATS-13) which included samples with normal or deficient ADAMTS13 activity levels. In addition, six Factor Assay ConTrol plasma were used (2 FACT, 2 A-FACT and 2 B-FACT, from George King Biomedical Inc., Kansas, USA). The assays for the SEQ ID NO: 1 substrate and for the prior art FRETS-VWF73 assay were performed generally as according to the procedure described in Example 1. Substrate is prepared according to the conditions used for initial testing of the substrate, which prepared the molar amount of SEQ ID NO: 1 polypeptide substrate used in the assay to be equivalent to the molar amount of FRETS-VWF73 used in the prior art. The […] assays were read at 0, 5, 10, 15, 20, 30, 45 minutes.
# Testing of substrate for cleavability by ADAMTS13 is determined as is generally described in Example 1. […]
sequence,measurement,setting,value
DREKAPNLVYMVTGCPASDEIKRLPGDIQVVPIEVIGWPNAPILIQDEETLPREAPDLVLQR [GTI_FRET4],% Normal ADAMTS13 Values Calculated Using GTI_FRET4 Substrate,"sample Positive Control High, incubation 60 Minutes",51 % Normal
same,% Normal ADAMTS13 Values Calculated Using GTI_FRET4 Substrate,"sample Positive Control High, incubation 75 Minutes",54 % Normal
same,% Normal ADAMTS13 Values Calculated Using GTI_FRET4 Substrate,"sample Positive Control High, incubation 90 Minutes",55 % Normal
same,Increase in Fluorescence Values (X minute - 0 minute Reading),"sample Positive Control Low, 15 min","2,182 RFU"
same,Increase in Fluorescence Values (X minute - 0 minute Reading),"sample Positive Control Low, 30 min","3,902 RFU"
same,Increase in Fluorescence Values (X minute - 0 minute Reading),"sample Positive Control Low, 45 min","5,511 RFU"
same,Increase in Fluorescence Values (X minute - 0 minute Reading),"sample Positive Control Low, 60 min","7,169 RFU"
same,Increase in Fluorescence Values (X minute - 0 minute Reading),"sample Positive Control Low, 75 min","8,789 RFU"
same,Increase in Fluorescence Values (X minute - 0 minute Reading),"sample Positive Control Low, 90 min","10,370 RFU"
same,% Normal ADAMTS13 Values Calculated Using GTI_FRET4 Substrate,"sample Positive Control Low, incubation 15 Minutes",10 % Normal
same,% Normal ADAMTS13 Values Calculated Using GTI_FRET4 Substrate,"sample Positive Control Low, incubation 30 Minutes",10 % Normal
same,% Normal ADAMTS13 Values Calculated Using GTI_FRET4 Substrate,"sample Positive Control Low, incubation 45 Minutes",10 % Normal
same,% Normal ADAMTS13 Values Calculated Using GTI_FRET4 Substrate,"sample Positive Control Low, incubation 60 Minutes",10 % Normal
same,% Normal ADAMTS13 Values Calculated Using GTI_FRET4 Substrate,"sample Positive Control Low, incubation 75 Minutes",10 % Normal
same,% Normal ADAMTS13 Values Calculated Using GTI_FRET4 Substrate,"sample Positive Control Low, incubation 90 Minutes",9 % Normal
same,Increase in Fluorescence Values (X minute - 0 minute Reading),"sample UAMS041609, 15 min","3,876 RFU"
same,Increase in Fluorescence Values (X minute - 0 minute Reading),"sample UAMS041609, 30 min","7,931 RFU"
same,Increase in Fluorescence Values (X minute - 0 minute Reading),"sample UAMS041609, 45 min","11,692 RFU"
same,Increase in Fluorescence Values (X minute - 0 minute Reading),"sample UAMS041609, 60 min","15,886 RFU"
same,Increase in Fluorescence Values (X minute - 0 minute Reading),"sample UAMS041609, 75 min","19,867 RFU"
same,Increase in Fluorescence Values (X minute - 0 minute Reading),"sample UAMS041609, 90 min","24,709 RFU"
same,% Normal ADAMTS13 Values Calculated Using GTI_FRET4 Substrate,"sample UAMS041609, incubation 15 Minutes",19 % Normal
same,% Normal ADAMTS13 Values Calculated Using GTI_FRET4 Substrate,"sample UAMS041609, incubation 30 Minutes",22 % Normal
same,% Normal ADAMTS13 Values Calculated Using GTI_FRET4 Substrate,"sample UAMS041609, incubation 45 Minutes",23 % Normal
same,% Normal ADAMTS13 Values Calculated Using GTI_FRET4 Substrate,"sample UAMS041609, incubation 60 Minutes",24 % Normal
same,% Normal ADAMTS13 Values Calculated Using GTI_FRET4 Substrate,"sample UAMS041609, incubation 75 Minutes",26 % Normal
same,% Normal ADAMTS13 Values Calculated Using GTI_FRET4 Substrate,"sample UAMS041609, incubation 90 Minutes",27 % Normal
same,Increase in Fluorescence Values (X minute - 0 minute Reading),"sample VF, 15 min","1,292 RFU"
same,Increase in Fluorescence Values (X minute - 0 minute Reading),"sample VF, 30 min","2,436 RFU"
same,Increase in Fluorescence Values (X minute - 0 minute Reading),"sample VF, 45 min","3,552 RFU"
same,Increase in Fluorescence Values (X minute - 0 minute Reading),"sample VF, 60 min","4,690 RFU"
same,Increase in Fluorescence Values (X minute - 0 minute Reading),"sample VF, 75 min","5,784 RFU"
same,Increase in Fluorescence Values (X minute - 0 minute Reading),"sample VF, 90 min","7,260 RFU"
same,% Normal ADAMTS13 Values Calculated Using GTI_FRET4 Substrate,"sample VF, incubation 15 Minutes",5 % Normal
same,% Normal ADAMTS13 Values Calculated Using GTI_FRET4 Substrate,"sample VF, incubation 30 Minutes",6 % Normal
same,% Normal ADAMTS13 Values Calculated Using GTI_FRET4 Substrate,"sample VF, incubation 45 Minutes",6 % Normal
same,% Normal ADAMTS13 Values Calculated Using GTI_FRET4 Substrate,"sample VF, incubation 60 Minutes",6 % Normal
same,% Normal ADAMTS13 Values Calculated Using GTI_FRET4 Substrate,"sample VF, incubation 75 Minutes",5 % Normal
same,% Normal ADAMTS13 Values Calculated Using GTI_FRET4 Substrate,"sample VF, incubation 90 Minutes",6 % Normal
